Laboratory results as given in patent publication US20220363757A1.

Key:
Assay in all cases: SPR, Fab over captured mutant LAG-3-Fc
[1] = molecular target: human LAG-3 domain 1-2 Fc fusion, chimeric construct #1 (mutated region AA 23-30) (human) (UniProt P18627)
[2] = molecular target: human LAG-3 domain 1-2 Fc fusion, chimeric construct #16 (mutated region AA 98-105) (human) (UniProt P18627)
[3] = molecular target: human LAG-3 domain 1-2 Fc fusion, chimeric construct #17 (mutated region AA 114-117) (human) (UniProt P18627)
Chain of human LAG-3 domain 1-2 Fc fusion, chimeric construct #17 (mutated region AA 114-117) (human) (P18627 other isoform, or with tags, fused parts or gaps mutant): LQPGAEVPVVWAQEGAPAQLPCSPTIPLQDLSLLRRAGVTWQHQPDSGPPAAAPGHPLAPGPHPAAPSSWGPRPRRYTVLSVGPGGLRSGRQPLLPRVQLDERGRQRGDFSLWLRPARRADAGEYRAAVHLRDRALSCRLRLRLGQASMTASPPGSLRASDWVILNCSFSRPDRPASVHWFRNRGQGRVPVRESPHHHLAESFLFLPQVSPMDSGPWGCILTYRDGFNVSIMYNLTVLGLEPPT

[4] = molecular target: human LAG-3 domain 1-2 Fc fusion, chimeric construct #20 (mutated region AA 123-131) (human) (UniProt P18627)
Chain of human LAG-3 domain 1-2 Fc fusion, chimeric construct #20 (mutated region AA 123-131) (human) (P18627 23-266, change not shown): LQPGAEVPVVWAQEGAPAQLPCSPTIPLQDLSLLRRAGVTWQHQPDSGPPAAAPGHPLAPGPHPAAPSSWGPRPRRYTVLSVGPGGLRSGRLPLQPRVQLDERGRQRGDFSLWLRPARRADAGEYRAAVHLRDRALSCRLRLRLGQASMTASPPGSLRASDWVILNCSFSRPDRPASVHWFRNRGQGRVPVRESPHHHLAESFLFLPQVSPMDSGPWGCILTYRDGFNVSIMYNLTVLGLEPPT

[5] = molecular target: human LAG-3 domain 1-2 Fc fusion, chimeric construct #22 (mutated region AA 140-142) (human) (UniProt P18627)
Chain of human LAG-3 domain 1-2 Fc fusion, chimeric construct #22 (mutated region AA 140-142) (human) (P18627 other isoform, or with tags, fused parts or gaps mutant): as the sequence (P18627 23-266, change not shown) above, with R118T, A120K counted along it

[6] = molecular target: human LAG-3 domain 1-2 Fc fusion, point mutation #16 H65A (human) (UniProt P18627)
Chain of human LAG-3 domain 1-2 Fc fusion, point mutation #16 H65A (human) (P18627 23-266 H65A): as the sequence (P18627 23-266, change not shown) above, with H43A counted along it

[7] = molecular target: human LAG-3 domain 1-2 Fc fusion, point mutation #17 Q66A (human) (UniProt P18627)
Chain of human LAG-3 domain 1-2 Fc fusion, point mutation #17 Q66A (human) (P18627 23-266 Q66A): as the sequence (P18627 23-266, change not shown) above, with Q44A counted along it

[8] = molecular target: human LAG-3 domain 1-2 Fc fusion, point mutation #20 A73S (human) (UniProt P18627)
[9] = molecular target: human LAG-3 domain 1-2 Fc fusion, point mutation #23 P76A (human) (UniProt P18627)
[10] = molecular target: human LAG-3 domain 1-2 Fc fusion, point mutation #27 L80A (human) (UniProt P18627)
Chain of human LAG-3 domain 1-2 Fc fusion, point mutation #27 L80A (human) (P18627 23-266 L80A): as the sequence (P18627 23-266, change not shown) above, with L58A counted along it

[11] = molecular target: human LAG-3 domain 1-2 Fc fusion, point mutation #28 A81S (human) (UniProt P18627)
[12] = molecular target: human LAG-3 domain 1-2 Fc fusion, point mutation #29 P82A (human) (UniProt P18627)
[13] = molecular target: human LAG-3 domain 1-2 Fc fusion, point mutation #3 P43A (human) (UniProt P18627)
[14] = molecular target: human LAG-3 domain 1-2 Fc fusion, point mutation #45 R98A (human) (UniProt P18627)
Chain of human LAG-3 domain 1-2 Fc fusion, point mutation #45 R98A (human) (P18627 23-266 R98A): as the sequence (P18627 23-266, change not shown) above, with R76A counted along it

[15] = molecular target: human LAG-3 domain 1-2 Fc fusion, point mutation #46 Y99A (human) (UniProt P18627)
Chain of human LAG-3 domain 1-2 Fc fusion, point mutation #46 Y99A (human) (P18627 23-266 Y99A): as the sequence (P18627 23-266, change not shown) above, with Y77A counted along it

[16] = molecular target: human LAG-3 domain 1-2 Fc fusion, point mutation #47 T100A (human) (UniProt P18627)
Chain of human LAG-3 domain 1-2 Fc fusion, point mutation #47 T100A (human) (P18627 23-266 T100A): as the sequence (P18627 23-266, change not shown) above, with T78A counted along it

[17] = molecular target: human LAG-3 domain 1-2 Fc fusion, point mutation #48 V101A (human) (UniProt P18627)
Chain of human LAG-3 domain 1-2 Fc fusion, point mutation #48 V101A (human) (P18627 23-266 V101A): as the sequence (P18627 23-266, change not shown) above, with V79A counted along it

[18] = molecular target: human LAG-3 domain 1-2 Fc fusion, point mutation #49 G105A (human) (UniProt P18627)
[19] = molecular target: human LAG-3 domain 1-2 Fc fusion, point mutation #5 P46A (human) (UniProt P18627)
Chain of human LAG-3 domain 1-2 Fc fusion, point mutation #5 P46A (human) (P18627 23-266 P46A): as the sequence (P18627 23-266, change not shown) above, with P24A counted along it

[20] = molecular target: human LAG-3 domain 1-2 Fc fusion, point mutation #51 G107A (human) (UniProt P18627)
[21] = molecular target: human LAG-3 domain 1-2 Fc fusion, point mutation #54 R110A (human) (UniProt P18627)
Chain of human LAG-3 domain 1-2 Fc fusion, point mutation #54 R110A (human) (P18627 23-266 R110A): as the sequence (P18627 23-266, change not shown) above, with R88A counted along it

[22] = molecular target: human LAG-3 domain 1-2 Fc fusion, point mutation #59 Q117A (human) (UniProt P18627)
Chain of human LAG-3 domain 1-2 Fc fusion, point mutation #59 Q117A (human) (P18627 23-266 Q117A): as the sequence (P18627 23-266, change not shown) above, with Q95A counted along it

[23] = molecular target: human LAG-3 domain 1-2 Fc fusion, point mutation #6 T47A (human) (UniProt P18627)
Chain of human LAG-3 domain 1-2 Fc fusion, point mutation #6 T47A (human) (P18627 23-266 T47A): as the sequence (P18627 23-266, change not shown) above, with T25A counted along it

[24] = molecular target: human LAG-3 domain 1-2 Fc fusion, point mutation #61 R119A (human) (UniProt P18627)
Chain of human LAG-3 domain 1-2 Fc fusion, point mutation #61 R119A (human) (P18627 23-266 R119A): as the sequence (P18627 23-266, change not shown) above, with R97A counted along it

[25] = molecular target: human LAG-3 domain 1-2 Fc fusion, point mutation #62 Q121A (human) (UniProt P18627)
Chain of human LAG-3 domain 1-2 Fc fusion, point mutation #62 Q121A (human) (P18627 23-266 Q121A): as the sequence (P18627 23-266, change not shown) above, with Q99A counted along it

[26] = molecular target: human LAG-3 domain 1-2 Fc fusion, point mutation #63 D123A (human) (UniProt P18627)
Chain of human LAG-3 domain 1-2 Fc fusion, point mutation #63 D123A (human) (P18627 23-266 D123A): as the sequence (P18627 23-266, change not shown) above, with D101A counted along it

[27] = molecular target: human LAG-3 domain 1-2 Fc fusion, point mutation #64 E124A (human) (UniProt P18627)
[28] = molecular target: human LAG-3 domain 1-2 Fc fusion, point mutation #67 R127A (human) (UniProt P18627)
[29] = molecular target: human LAG-3 domain 1-2 Fc fusion, point mutation #68 Q128A (human) (UniProt P18627)
[30] = molecular target: human LAG-3 domain 1-2 Fc fusion, point mutation #72 S133A (human) (UniProt P18627)
[31] = molecular target: human LAG-3 domain 1-2 Fc fusion, point mutation #77 R148A (human) (UniProt P18627)
Chain of human LAG-3 domain 1-2 Fc fusion, point mutation #77 R148A (human) (P18627 23-266 R148A): as the sequence (P18627 23-266, change not shown) above, with R126A counted along it

[32] = molecular target: human LAG-3 domain 1-2 Fc fusion, point mutation #79 S159A (human) (UniProt P18627)
Chain of human LAG-3 domain 1-2 Fc fusion, point mutation #79 S159A (human) (P18627 23-266 S159A): as the sequence (P18627 23-266, change not shown) above, with S137A counted along it

[33] = molecular target: human LAG-3 domain 1-2 Fc fusion, point mutation #8 Q51A (human) (UniProt P18627)

Substance: Fab fragment of 25F7-Lag3.5 analogue
- KD mutant/KD wild type [1]: 1.3 fold
- KD mutant/KD wild type [2]: 1.7 fold
- KD mutant/KD wild type [3]: 1.3 fold
- KD mutant/KD wild type [4]: 1.3 fold
- KD mutant/KD wild type [5]: 1.2 fold
- KD mutant/KD wild type [6]: 1.2 fold
- KD mutant/KD wild type [7]: 0.9 fold
- KD mutant/KD wild type [8]: 0.8 fold
- KD mutant/KD wild type [9]: 0.9 fold
- KD mutant/KD wild type [10]: 0.7 fold
- KD mutant/KD wild type [11]: 0.7 fold
- KD mutant/KD wild type [12]: 0.9 fold
- KD mutant/KD wild type [13]: 1.2 fold
- KD mutant/KD wild type [14]: 0.9 fold
- KD mutant/KD wild type [15]: 1 fold
- KD mutant/KD wild type [16]: 1.2 fold
- KD mutant/KD wild type [17]: 1 fold
- KD mutant/KD wild type [18]: 1 fold
- KD mutant/KD wild type [19]: 1.1 fold
- KD mutant/KD wild type [20]: 0.8 fold
- KD mutant/KD wild type [21]: 0.9 fold
- KD mutant/KD wild type [22]: 0.8 fold
- KD mutant/KD wild type [23]: 0.8 fold
- KD mutant/KD wild type [24]: 1.1 fold
- KD mutant/KD wild type [25]: 0.9 fold
- KD mutant/KD wild type [26]: 1 fold
- KD mutant/KD wild type [27]: 1.1 fold
- KD mutant/KD wild type [28]: 0.7 fold
- KD mutant/KD wild type [29]: 0.7 fold
- KD mutant/KD wild type [30]: 1.1 fold
- KD mutant/KD wild type [31]: 1.2 fold
- KD mutant/KD wild type [32]: 0.8 fold
- KD mutant/KD wild type [33]: 0.8 fold
